Data taken from US20090162363A1 (published 2009).

What was measured:
[1] = molecular target: T1, recombinant human PEDF protein (pigment epithelium derived factor) (human, UniProt P36955 20-418); test: SPR (BIAcore), PEDF immobilized on CM5 chip; PBS with 0.1% NP-40
T1 chain: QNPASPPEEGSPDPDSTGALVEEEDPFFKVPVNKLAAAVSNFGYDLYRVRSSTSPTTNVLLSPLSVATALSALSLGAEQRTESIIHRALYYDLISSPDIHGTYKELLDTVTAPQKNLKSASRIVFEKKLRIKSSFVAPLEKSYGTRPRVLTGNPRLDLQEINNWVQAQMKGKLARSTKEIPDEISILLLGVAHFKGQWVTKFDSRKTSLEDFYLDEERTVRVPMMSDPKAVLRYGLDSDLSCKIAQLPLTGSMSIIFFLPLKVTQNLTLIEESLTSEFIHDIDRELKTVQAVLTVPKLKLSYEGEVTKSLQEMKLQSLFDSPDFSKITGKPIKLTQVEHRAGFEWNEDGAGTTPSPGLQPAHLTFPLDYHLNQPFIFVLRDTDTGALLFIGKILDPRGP

[2] = molecular target: T1, recombinant human PEDF protein (pigment …); test: as above

B1: R1N (recombinant human PEDF-R1 polypeptide with N-terminal 6xHis tag, from pEXP1-R1N) (receptor)
chain: MFPREKTWNISFAGCGFLGVYYVGVASCLREHAPFLVANATHIYGASAGALTATALVTGVCLGEAGAKFIEVSKEARKRFLGPLHPSFNLVKIIRSFLLKVLPADSHEHASGRLGISLTRVSDGENVIISHFNSKDELIQANVCSGFIPVYCGLIPPSLQGVRYVDGGISDNLPLYELKNTITVSPFSGESDICPQDSSTNIHELRVTNTSIQFNLRNLYRLSKALFPPEPLVLREMCKQGYRDGLRFLQRNGLLNRPNPLLALPPARPHGPEDKDQAVESAQAEDYSQLPGEDHILEHLPARLNEALLEACVEPTDLLTTLSNMLPVRLATAMMVPYTLPLESALSFTIRLLEWLPDVPEDIRWMKEQTGSICQYLVMRAKRKLGRHLPSRLPEQVELRRVQSLPSVPLSCAAYREALPGWMRNNLSLGDALAKWEECQRQLLLGLFCTNVAFPPEALRMRAPADPAPAPADPASPQHQLAGPAPLLSTPAPEARPVIGALGL
**Q.** B1 was tested. Which Ka [1] did it give?
**A.** 4.32e+08 M⁻¹

**Q.** And the Kd [2]?
**A.** 2.31 nM
